One data set has as its target T1, Int82N(R225K) (Enterococcus faecalis, UniProt Q7BP35 82-397, R225K).
T1 sequence: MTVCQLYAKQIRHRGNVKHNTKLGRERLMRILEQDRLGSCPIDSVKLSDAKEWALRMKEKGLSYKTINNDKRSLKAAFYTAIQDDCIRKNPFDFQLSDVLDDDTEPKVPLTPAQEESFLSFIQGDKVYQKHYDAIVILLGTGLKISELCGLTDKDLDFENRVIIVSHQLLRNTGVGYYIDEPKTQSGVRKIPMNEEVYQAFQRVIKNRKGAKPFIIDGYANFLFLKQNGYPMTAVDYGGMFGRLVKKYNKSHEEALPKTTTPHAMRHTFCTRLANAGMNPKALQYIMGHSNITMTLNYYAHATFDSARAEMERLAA
Kind of data set: X-ray crystallography; 2 protein:1 DNA; […] (50 mM HEPES pH 7.5, 250 mM NaCl, 5 mM DTT, 10% glycerol), […]. As to conditions: protein: recombinant, tags: 6xHis-SUMO removed by SenP2, extra N-terminal S81, chain copies: 2, terminal T/T mismatch as printed.

For data set [1], the target named is T2, Int82N (Enterococcus faecalis, UniProt Q7BP35 82-397).
T2 sequence: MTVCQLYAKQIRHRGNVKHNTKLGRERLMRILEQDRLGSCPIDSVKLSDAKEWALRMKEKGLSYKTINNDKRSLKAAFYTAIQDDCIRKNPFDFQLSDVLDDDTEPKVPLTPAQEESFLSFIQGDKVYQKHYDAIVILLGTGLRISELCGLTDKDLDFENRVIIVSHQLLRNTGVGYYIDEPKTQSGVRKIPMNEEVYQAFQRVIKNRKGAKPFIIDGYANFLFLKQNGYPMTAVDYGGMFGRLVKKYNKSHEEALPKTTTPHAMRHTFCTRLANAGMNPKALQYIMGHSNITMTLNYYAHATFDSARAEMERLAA
Kind of data set: X-ray crystallography; wild-type catalytic residues; […] (50 mM HEPES pH 7.5, 250 mM NaCl, 5 mM DTT, 10% glycerol), […]. Particulars: protein: recombinant; tags: 6xHis-SUMO removed by SenP2; extra N-terminal S81; chain copies: 2; label: 5'-32P in EMSA; none in crystals; 44 bp; terminal T/T mismatch as printed. (In general: Mobility shift assays separate free from complexed probe on a gel.)

A further data set has as its target 381C (Enterococcus faecalis, UniProt Q7BP35 82-381). Kind of data set: EMSA; monomeric and higher oligomers; […] (50 mM HEPES pH 7.5, 250 mM NaCl, 5 mM DTT, 10% glycerol), […]. As to conditions: protein: recombinant; tags: 6xHis-SUMO removed by SenP2; label: 5'-32P in EMSA; none in crystals; 44 bp; terminal T/T mismatch as printed.
The next data set has as its target 390C (Enterococcus faecalis, UniProt Q7BP35 82-390). The data set is described as above. As to conditions: protein: recombinant; tags: 6xHis-SUMO removed by SenP2; label: 5'-32P in EMSA; none in crystals; 44 bp; terminal T/T mismatch as printed.
Data set [2] concerns the target T2, Int82N. In words: 2AP fluorescence; base-flipping readout; […] (50 mM HEPES pH 7.5, 250 mM NaCl, 5 mM DTT, 10% glycerol), […]. As to conditions: protein: recombinant; tags: 6xHis-SUMO removed by SenP2; extra N-terminal S81; chain copies: 2; label: 2AP; 44 nt strands; 2AP opposite C at one flipped base; terminal T/T mismatch.
In a further data set the target is T3, Int82N(Y379F) (Enterococcus faecalis, UniProt Q7BP35 82-397, Y379F).
T3 sequence: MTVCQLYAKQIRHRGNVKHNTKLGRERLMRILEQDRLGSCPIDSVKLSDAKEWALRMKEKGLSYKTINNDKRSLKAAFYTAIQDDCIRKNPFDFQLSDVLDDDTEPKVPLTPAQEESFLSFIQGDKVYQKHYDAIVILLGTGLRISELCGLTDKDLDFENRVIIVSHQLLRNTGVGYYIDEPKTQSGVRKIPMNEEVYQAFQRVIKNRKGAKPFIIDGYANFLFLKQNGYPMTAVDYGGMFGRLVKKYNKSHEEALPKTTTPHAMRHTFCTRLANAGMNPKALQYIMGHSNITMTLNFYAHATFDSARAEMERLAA
Kind of data set: X-ray crystallography; […] (50 mM HEPES pH 7.5, 250 mM NaCl, 5 mM DTT, 10% glycerol), […]. As to conditions: protein: recombinant; tags: 6xHis-SUMO removed by SenP2; 5' overhang 6 nt.

For data set [3], the target named is T2, Int82N. Kind of data set: EMSA; 2:1 complex; similar affinity to CI5; […] (50 mM HEPES pH 7.5, 250 mM NaCl, 5 mM DTT, 10% glycerol), […]. Particulars: protein: recombinant; tags: 6xHis-SUMO removed by SenP2; extra N-terminal S81; chain copies: 2; 45 bp; terminal T/T mismatch as printed.
Data set [4] concerns the molecule itself. Kind of data set: crystal structure; Int^82N (R225K or wild type) with 44 bp CI5 dsDNA at 2:1 molar ratio in Buffer C; vapor diffusion at 20°C; 2.8 Å.
Data set [5] concerns the molecule itself. Kind of data set: SEC; analytical size exclusion chromatography on Superdex 200 10/300, proteins without DNA. In general terms: Size exclusion chromatography separates by hydrodynamic size, large species first.
Data set [6] has as its target T4, Int82N (HJ-bound tetramer) (Enterococcus faecalis, UniProt Q7BP35 82-397).
T4 sequence: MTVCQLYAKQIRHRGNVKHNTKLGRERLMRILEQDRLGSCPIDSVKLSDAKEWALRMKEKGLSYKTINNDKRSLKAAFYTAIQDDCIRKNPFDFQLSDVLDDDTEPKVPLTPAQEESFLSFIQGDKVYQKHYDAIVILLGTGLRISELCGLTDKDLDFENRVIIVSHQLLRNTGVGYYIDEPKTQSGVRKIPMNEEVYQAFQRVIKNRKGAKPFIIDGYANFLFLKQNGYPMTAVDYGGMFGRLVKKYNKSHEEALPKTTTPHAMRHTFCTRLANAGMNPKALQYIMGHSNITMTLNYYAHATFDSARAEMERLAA
In words: EMSA; 4:1 protein:HJ; […] (50 mM HEPES pH 7.5, 250 mM NaCl, 5 mM DTT, 10% glycerol), […]. Particulars: protein: recombinant; tags: 6xHis-SUMO removed by SenP2; chain copies: 4; four-way junction of 4 strands.

By stoichiometry N is commonly meant a count of units in the complex or per binding partner.

B1: CI5 (dsDNA)
DNA 1: TGCGATAACCTAAAATTTTATAGCAAAATTATATGGGATTTTAG
DNA 2: CTAAAATCCCATATAATTTTGCTATAAAATTTTAGGTTATCGCT
B1: the binding result in the data set with Int82N(R225K) (label: 5'-32P in EMSA, none in crystals, 44 bp) is “binds”; in the data set with Int82N [1] it was “binds”; with 381C, “binds”; in the data set with 390C it was “binds”.

B2: CI5-F (dsDNA)
DNA 1: TGCGATAACCTAAAATTTTTTAGAAAAATTATATGGGATTTTAG
DNA 2: CTAAAATCCCATATAATTTTCCTAAAAAATTTTAGGTTATCGCT
modifications: 2-aminopurine (written A) at position 24 of top and 25 of bottom strand
With B2, the binding signal with Int82N [2] was ~4.6 fold 2AP fluorescence increase.

B3: IRR half-site (dsDNA)
DNA 1: ATTTTCAAAATTATGGGATTTTAG
DNA 2: CTAAAATCCCATATAATTTT
As to B3, the binding result with Int82N(Y379F) is “binds”.

B4: CI6a (dsDNA)
DNA 1: TGCGATAACCTAAAATTTTATTTTCAAAATTATATGGGATTTTAG
DNA 2: CTAAAATCCCATATAATTTTGAAAATAAAATTTTAGGTTATCGCT
In the case of B4, the binding result with Int82N [3] and with Int82N(R225K) (45 bp) was “binds” each time.

B5: CI6b (dsDNA)
DNA 1: TGCGATAACCTAAAATTTTCCCTTTAAAATTATATGGGATTTTAG
DNA 2: CTAAAATCCCATATAATTTTAAAGGGAAAATTTTAGGTTATCGCT
Turning to B5, the binding result with Int82N [3] and with Int82N(R225K) (45 bp) was “binds” throughout.

B6: Int^82N(R225K), catalytic mutant of Tn1549 Int aa 82–397 (domain or fragment, Enterococcus faecalis)
chain: SMTVCQLYAKQIRHRGNVKHNTKLGRERLMRILEQDRLGSCPIDSVKLSDAKEWALRMKEKGLSYKTINNDKRSLKAAFYTAIQDDCIRKNPFDFQLSDVLDDDTEPKVPLTPAQEESFLSFIQGDKVYQKHYDAIVILLGTGLKISELCGLTDKDLDFENRVIIVSHQLLRNTGVGYYIDEPKTQSGVRKIPMNEEVYQAFQRVIKNRKGAKPFIIDGYANFLFLKQNGYPMTAVDYGGMFGRLVKKYNKSHEEALPKTTTPHAMRHTFCTRLANAGMNPKALQYIMGHSNITMTLNYYAHATFDSARAEMERLAA
notes: additional residue S81 left after SenP2 cleavage of the purification tags; Tn1549 integrase (Int), Enterococcus faecalis, GenBank AAF72368.1, aa 82-397, with R225K; Crystallised with CI5, CI6a and CI6b DNA; also called R225K Int^82N; not shown: His6, N-terminal, cleaved; SUMO, N-terminal, cleaved
Consider B6, for which the binding result in data set [4] was “binds”.

B7: Tn1549 Int variant lacking the AB domain (aa 82–397; Int^82N), wild type (domain or fragment, Enterococcus faecalis)
chain: SMTVCQLYAKQIRHRGNVKHNTKLGRERLMRILEQDRLGSCPIDSVKLSDAKEWALRMKEKGLSYKTINNDKRSLKAAFYTAIQDDCIRKNPFDFQLSDVLDDDTEPKVPLTPAQEESFLSFIQGDKVYQKHYDAIVILLGTGLRISELCGLTDKDLDFENRVIIVSHQLLRNTGVGYYIDEPKTQSGVRKIPMNEEVYQAFQRVIKNRKGAKPFIIDGYANFLFLKQNGYPMTAVDYGGMFGRLVKKYNKSHEEALPKTTTPHAMRHTFCTRLANAGMNPKALQYIMGHSNITMTLNYYAHATFDSARAEMERLAA
notes: additional residue S81 left after SenP2 cleavage of the purification tags; Tn1549 integrase (Int), Enterococcus faecalis, GenBank AAF72368.1, aa 82-397 (CB and CAT domains, no AB domain); full length is aa 1-397; Codon-optimised synthetic gene in pETM28 (BamHI/XhoI); also called Int^82N(wt); Tn1549 integrase; not shown: His6, N-terminal, cleaved; SUMO, N-terminal, cleaved
In the case of B7, the “stoichiometry N” value in data set [5] turned out to be 2.

B8: HJ (EMSA) (structured_DNA)
DNA 1: AGTGAACAGCCCACAAAATTTTGAAAATAAAATTTTAGGTTATCGCTGGCTAGTCCATGC
DNA 2: GCATGGACTAGCCAGCGATAACCTAAAATTTTATTAATAAAATTATATGGGATTT
DNA 3: CCAAATTTTTTACCGGGTTTTGAATTCAAAATTTTGTGGGCTGTTCACT
DNA 4: AAATCCCATATAATTTTATTTTCAAAACCCGGTAAAAAATTTGG
As for B8, the binding result in data set [6] is “binds”.

(Values after paper PMC5871717, “Transposase-DNA Complex Structures Reveal Mechanisms for Conjugative Transposition of Antibiotic Resistance” (Cell, 2018).)
